“And” between values parts separate entries of the source, which are not always exact repeats. Equal entries are not always repeated. Where two headings read alike, the source gives them in different places.
Experiments:
[1] = molecular target: T1, DLL4 (human, UniProt Q9NR61); experiment: ELISA
[2] = molecular target: T1, DLL4; experiment: competition
[3] = molecular target: T2, IGF2 (human, UniProt P01344); experiment: SPR
[4] = molecular target: T3, IGF1 (human, UniProt P05019); experiment: ELISA
[5] = molecular target: T2, IGF2; experiment: ELISA
[6] = molecular target: T2, IGF2; experiment: ELISA; remark: listed apart in the source
[7] = molecular target: T3, IGF1; experiment: ELISA; remark: listed apart in the source
[8] = molecular target: T4, ErbB3 (human, UniProt P21860); experiment: SPR
[9] = molecular target: T4, ErbB3; experiment: ELISA
[10] = molecular target: T5, PlGF (human, UniProt P49763); experiment: SPR
T5 chain: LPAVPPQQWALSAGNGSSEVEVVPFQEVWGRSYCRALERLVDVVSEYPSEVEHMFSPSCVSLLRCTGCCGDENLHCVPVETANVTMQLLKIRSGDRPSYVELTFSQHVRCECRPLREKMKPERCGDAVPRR

[11] = molecular target: T5, PlGF; experiment: ELISA
[12] = molecular target: T6, HGF (human, UniProt P14210); experiment: SPR
T6 sequence (P14210 32-728): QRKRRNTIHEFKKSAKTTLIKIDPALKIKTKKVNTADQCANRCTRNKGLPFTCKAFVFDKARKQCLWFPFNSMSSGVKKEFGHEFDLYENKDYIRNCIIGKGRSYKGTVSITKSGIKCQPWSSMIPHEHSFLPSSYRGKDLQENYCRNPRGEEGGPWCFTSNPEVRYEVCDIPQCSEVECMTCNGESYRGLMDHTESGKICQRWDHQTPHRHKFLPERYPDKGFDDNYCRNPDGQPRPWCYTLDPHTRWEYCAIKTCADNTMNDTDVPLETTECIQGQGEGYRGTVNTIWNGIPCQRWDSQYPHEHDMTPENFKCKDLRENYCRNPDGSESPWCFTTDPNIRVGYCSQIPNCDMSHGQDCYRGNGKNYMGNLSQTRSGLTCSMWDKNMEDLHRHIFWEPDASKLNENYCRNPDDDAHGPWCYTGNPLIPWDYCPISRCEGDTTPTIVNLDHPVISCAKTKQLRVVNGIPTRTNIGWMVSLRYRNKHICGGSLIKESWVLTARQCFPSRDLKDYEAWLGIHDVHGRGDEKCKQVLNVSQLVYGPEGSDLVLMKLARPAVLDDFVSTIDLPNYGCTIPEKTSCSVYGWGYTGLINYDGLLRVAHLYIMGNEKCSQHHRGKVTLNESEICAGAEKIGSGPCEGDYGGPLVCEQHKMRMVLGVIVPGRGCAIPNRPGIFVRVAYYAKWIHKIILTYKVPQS

[13] = molecular target: T6, HGF; experiment: ELISA
[14] = molecular target: T6, HGF; experiment: competition
[15] = molecular target: T7, IGF1R (human, UniProt P08069); experiment: ELISA
[16] = molecular target: T7, IGF1R; experiment: ELISA; remark: listed apart in the source

T1 sequence (Q9NR61 27-524): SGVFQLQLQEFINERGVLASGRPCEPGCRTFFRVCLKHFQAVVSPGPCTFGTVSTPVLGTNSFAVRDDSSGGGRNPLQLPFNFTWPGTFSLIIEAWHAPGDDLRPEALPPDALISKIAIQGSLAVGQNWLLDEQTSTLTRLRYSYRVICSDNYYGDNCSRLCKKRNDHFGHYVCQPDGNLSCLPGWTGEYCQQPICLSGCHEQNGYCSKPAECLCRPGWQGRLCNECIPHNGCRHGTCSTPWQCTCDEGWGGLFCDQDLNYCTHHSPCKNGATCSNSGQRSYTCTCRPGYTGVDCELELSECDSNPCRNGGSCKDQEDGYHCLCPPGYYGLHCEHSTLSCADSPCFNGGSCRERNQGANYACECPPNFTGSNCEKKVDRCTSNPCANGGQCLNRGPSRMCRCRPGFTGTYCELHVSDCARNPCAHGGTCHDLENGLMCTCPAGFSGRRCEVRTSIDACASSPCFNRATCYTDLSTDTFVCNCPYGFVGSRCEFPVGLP

B1: DVD258 DLL4 arm (antibody)
chain 1: EVQLVESGGGLVQPGGSLRLSCAASGFTFTDNWISWVRQAPGKGLEWVGYISPNSGFTYYADSVKGRFTISADTSKNTAYLQMNSLRAEDTAVYYCARDNFGGYFDYWGQGTLVTVSS
chain 2: DIQMTQSPSSLSASVGDRVTITCRASQDVSTAVAWYQQKPGKAPKLLIYSASFLYSGVPSRFSGSGSGTDFTLTISSLQPEDFATTYYCQQSYTGTVTFGQGTKVEIKR
modifications: DVD-Ig inner
EC50 [1]: 2.3 nM | IC50 [2]: 17.5 nM

B2: DVD041 IGF1,2 arm (antibody, V domains shown)
VH: QVQLVQSGAEVKKPGASVKVSCKASGYTFTSYDINWVRQATGQGLEWMGWMNPNSGNTGYAQKFQGRVTMTRNTSISTAYMELSSLRSEDTAVYYCARDPYYYYYGMDVWGQGTTVTVSS
VL: QSVLTQPPSVSAAPGQKVTISCSGSSSNIENNHVSWYQQLPGTAPKLLIYDNNKRPSGIPDRFSGSKSGTSATLGITGLQTGDEADYYCETWDTSLSAGRVFGGGTKLTVLG
modifications: DVD-Ig inner
Kd [3]: < 0.0124 nM | EC50 [4]: 381 nM | EC50 [5]: 7340 nM | EC50 [6]: 7340 nM | EC50 [7]: 381 nM

B3: DVD042 IGF1,2 arm (antibody, V domains shown)
VH: QVQLVQSGAEVKKPGASVKVSCKASGYTFTSYDINWVRQATGQGLEWMGWMNPNSGNTGYAQKFQGRVTMTRNTSISTAYMELSSLRSEDTAVYYCARDPYYYYYGMDVWGQGTTVTVSS
VL: QSVLTQPPSVSAAPGQKVTISCSGSSSNIENNHVSWYQQLPGTAPKLLIYDNNKRPSGIPDRFSGSKSGTSATLGITGLQTGDEADYYCETWDTSLSAGRVFGGGTKLTVLG
modifications: DVD-Ig outer
Kd [3]: 0.000998 nM | EC50 [4]: 2.54 nM | EC50 [5]: 17.6 nM | EC50 [6]: 17.6 nM | EC50 [7]: 2.5 nM

B4: DVD299 ErbB3 arm (antibody, V domains shown)
VH: QVQLQQWGAGLLKPSETLSLTCAVYGGSFSGYYWSWIRQPPGKGLEWIGEINHSGSTNYNPSLKSRVTISVETSKNQFSLKLSSVTAADTAVYYCARDKWTWYFDLWGRGTLVTVSS
VL: not shown
modifications: DVD-Ig outer
Kd [8]: 0.82 nM | EC50 [9]: 1.96 nM

B5: DVD300 ErbB3 arm (antibody, V domains shown)
VH: QVQLQQWGAGLLKPSETLSLTCAVYGGSFSGYYWSWIRQPPGKGLEWIGEINHSGSTNYNPSLKSRVTISVETSKNQFSLKLSSVTAADTAVYYCARDKWTWYFDLWGRGTLVTVSS
VL: not shown
modifications: DVD-Ig inner
EC50 [9]: 7630 nM

B6: AB047 (antibody, V domains shown)
VH: QVQLQQSGAELVKPGASVKISCKASGYTFTDYYINWVKLAPGQGLEWIGWIYPGSGNTKYNEKFKGKATLTIDTSSSTAYMQLSSLTSEDTAVYFCVRDSPFFDYWGQGTLLTVSS
VL: DIVLTQSPDSLAVSLGERVTMNCKSSQSLLNSGMRKSFLAWYQQKPGQSPKLLIYWASTRESGVPDRFTGSGSGTDFTLTISSVQAEDVAVYYCKQSYHLFTFGSGTKLEIKR
Kd [10]: 0.0285 nM and 0.0284 nM | EC50 [11]: 0.2 nM

B7: DVD259 PlGF arm (antibody, V domains shown)
VH: QVQLQQSGAELVKPGASVKISCKASGYTFTDYYINWVKLAPGQGLEWIGWIYPGSGNTKYNEKFKGKATLTIDTSSSTAYMQLSSLTSEDTAVYFCVRDSPFFDYWGQGTLLTVSS
VL: DIVLTQSPDSLAVSLGERVTMNCKSSQSLLNSGMRKSFLAWYQQKPGQSPKLLIYWASTRESGVPDRFTGSGSGTDFTLTISSVQAEDVAVYYCKQSYHLFTFGSGTKLEIKR
modifications: DVD-Ig inner
Kd [10]: 0.33 nM | EC50 [11]: 1.3 nM

B8: DVD258 PlGF arm (antibody, V domains shown)
VH: QVQLQQSGAELVKPGASVKISCKASGYTFTDYYINWVKLAPGQGLEWIGWIYPGSGNTKYNEKFKGKATLTIDTSSSTAYMQLSSLTSEDTAVYFCVRDSPFFDYWGQGTLLTVSS
VL: DIVLTQSPDSLAVSLGERVTMNCKSSQSLLNSGMRKSFLAWYQQKPGQSPKLLIYWASTRESGVPDRFTGSGSGTDFTLTISSVQAEDVAVYYCKQSYHLFTFGSGTKLEIKR
modifications: DVD-Ig outer
Kd [10]: < 0.254 nM | EC50 [11]: 0.08 nM

B9: DVD257 PlGF arm (antibody, V domains shown)
VH: QVQLQQSGAELVKPGASVKISCKASGYTFTDYYINWVKLAPGQGLEWIGWIYPGSGNTKYNEKFKGKATLTIDTSSSTAYMQLSSLTSEDTAVYFCVRDSPFFDYWGQGTLLTVSS
VL: DIVLTQSPDSLAVSLGERVTMNCKSSQSLLNSGMRKSFLAWYQQKPGQSPKLLIYWASTRESGVPDRFTGSGSGTDFTLTISSVQAEDVAVYYCKQSYHLFTFGSGTKLEIKR
modifications: DVD-Ig inner
Kd [10]: 0.367 nM | EC50 [11]: 2 nM

B10: DVD260 PlGF arm (antibody, V domains shown)
VH: QVQLQQSGAELVKPGASVKISCKASGYTFTDYYINWVKLAPGQGLEWIGWIYPGSGNTKYNEKFKGKATLTIDTSSSTAYMQLSSLTSEDTAVYFCVRDSPFFDYWGQGTLLTVSS
VL: DIVLTQSPDSLAVSLGERVTMNCKSSQSLLNSGMRKSFLAWYQQKPGQSPKLLIYWASTRESGVPDRFTGSGSGTDFTLTISSVQAEDVAVYYCKQSYHLFTFGSGTKLEIKR
modifications: DVD-Ig outer
Kd [10]: 0.012 nM | EC50 [11]: 0.12 nM

B11: DVD033 HGF arm (antibody, V domains shown)
VH: QVQLVESGGGLVKPGGSLRLSCAASGFTFSDYYMSWIRQAPGKGLEWVSYISSSGSTIYYADSVKGRFTISRDNAKNSLYLQMNSLRAEDTAVYYCARDEYNSGWYVLFDYWGQGTLVTVSS
VL: DIQMTQSPSSVSASVGDRVTITCRASQGISSWLAWYQQKPGKAPNLLIYEASSLQSGVPSRFGGSGSGTDFTLTISSLQPEDFATYYCQQANGFPWTFGQGTKVEIKR
modifications: DVD-Ig inner
Kd [12]: 0.31 nM | EC50 [13]: 11.9 nM | IC50 [14]: 8.7 nM

B12: DVD034 HGF arm (antibody, V domains shown)
VH: QVQLVESGGGLVKPGGSLRLSCAASGFTFSDYYMSWIRQAPGKGLEWVSYISSSGSTIYYADSVKGRFTISRDNAKNSLYLQMNSLRAEDTAVYYCARDEYNSGWYVLFDYWGQGTLVTVSS
VL: DIQMTQSPSSVSASVGDRVTITCRASQGISSWLAWYQQKPGKAPNLLIYEASSLQSGVPSRFGGSGSGTDFTLTISSLQPEDFATYYCQQANGFPWTFGQGTKVEIKR
modifications: DVD-Ig outer
Kd [12]: 0.0215 nM | EC50 [13]: 0.27 nM | IC50 [14]: 0.34 nM

B13: AB012 (antibody, V domains shown)
VH: QVQLVESGGGLVKPGGSLRLSCAASGFTFSDYYMSWIRQAPGKGLEWVSYISSSGSTIYYADSVKGRFTISRDNAKNSLYLQMNSLRAEDTAVYYCARDEYNSGWYVLFDYWGQGTLVTVSS
VL: DIQMTQSPSSVSASVGDRVTITCRASQGISSWLAWYQQKPGKAPNLLIYEASSLQSGVPSRFGGSGSGTDFTLTISSLQPEDFATYYCQQANGFPWTFGQGTKVEIKR
Kd [12]: < 0.0284 nM | EC50 [13]: 0.19 nM and 0.22 nM | IC50 [14]: 0.18 nM

B14: DVD046 HGF arm (antibody, V domains shown)
VH: QVQLVESGGGLVKPGGSLRLSCAASGFTFSDYYMSWIRQAPGKGLEWVSYISSSGSTIYYADSVKGRFTISRDNAKNSLYLQMNSLRAEDTAVYYCARDEYNSGWYVLFDYWGQGTLVTVSS
VL: DIQMTQSPSSVSASVGDRVTITCRASQGISSWLAWYQQKPGKAPNLLIYEASSLQSGVPSRFGGSGSGTDFTLTISSLQPEDFATYYCQQANGFPWTFGQGTKVEIKR
modifications: DVD-Ig outer
Kd [12]: < 0.0236 nM | EC50 [13]: 0.5 nM

B15: DVD025 HGF arm (antibody, V domains shown)
VH: QVQLVESGGGLVKPGGSLRLSCAASGFTFSDYYMSWIRQAPGKGLEWVSYISSSGSTIYYADSVKGRFTISRDNAKNSLYLQMNSLRAEDTAVYYCARDEYNSGWYVLFDYWGQGTLVTVSS
VL: DIQMTQSPSSVSASVGDRVTITCRASQGISSWLAWYQQKPGKAPNLLIYEASSLQSGVPSRFGGSGSGTDFTLTISSLQPEDFATYYCQQANGFPWTFGQGTKVEIKR
modifications: DVD-Ig inner
Kd [12]: 0.746 nM | EC50 [13]: 251 nM | IC50 [14]: > 100 nM

B16: DVD031 IGF1R arm (antibody, V domains shown)
VH: EVQLLESGGGLVQPGGSLRLSCTASGFTFSSYAMNWVRQAPGKGLEWVSAISGSGGTTFYADSVKGRFTISRDNSRTTLYLQMNSLRAEDTAVYYCAKDLGWSDSYYYYYGMDVWGQGTTVTVSS
VL: DIQMTQFPSSLSASVGDRVTITCRASQGIRNDLGWYQQKPGKAPKRLIYAASRLHRGVPSRFSGSGSGTEFTLTISSLQPEDFATYYCLQHNSYPCSFGQGTKLEIKR
modifications: DVD-Ig inner
EC50 [15]: 171 nM | EC50 [16]: 171 nM

B17: DVD021 IGF1R arm (antibody, V domains shown)
VH: EVQLLESGGGLVQPGGSLRLSCTASGFTFSSYAMNWVRQAPGKGLEWVSAISGSGGTTFYADSVKGRFTISRDNSRTTLYLQMNSLRAEDTAVYYCAKDLGWSDSYYYYYGMDVWGQGTTVTVSS
VL: DIQMTQFPSSLSASVGDRVTITCRASQGIRNDLGWYQQKPGKAPKRLIYAASRLHRGVPSRFSGSGSGTEFTLTISSLQPEDFATYYCLQHNSYPCSFGQGTKLEIKR
modifications: DVD-Ig inner
EC50 [15]: 135 nM | EC50 [16]: 135 nM
